# In patent publication US20250084155A1 (University of Texas, published 2025):
# Residue numbers refer to the chain shown, from its start.
# B1: chimeric 77A with a human IgG1 Fc domain (antibody, V domains shown)
# VH: QIQLVQSGPELKKPGETVKISCKASGYTFTNYGMNWVKQAPGKGLKWMGWINTYTGEPTYADDFKGRFAFSLETSATTAYLQINNLKNEDTATYFCARYDHAMDYWGQGTSVTVSS
# VL: DIVMSQSPSSLAVSAGEKVTMSCKSSQSLLNSGTRKNYLAWYQQKPGQSPKLLIYWTSTRESGVPDRFTGSGSGTDFTLTINSVQAEDLAVYYCKQSYTLYTFGGGTKLEIK
# notes: also called Chimera IgG1; IgG1 Chimera
# B2: chimeric 77A with a human IgG4 Fc domain (antibody, V domains shown)
# VH: B1 VH
# VL: B1 VL
# notes: also called Chimera IgG4; IgG4 Chimera
# B3: h77A-12 (antibody, V domains shown)
# VH: QVQLQQSGPEVKKPGASVKISCKTSGYTFTNYGMNWVRQAPGQGLEWMGWINTYTGEPTYADDFKGRVTMTTDTSTSTAYLELTGLMSDDTAVYFCARYDHAMDYWGQGTTVTVSS
# VL: DIVMTQSPDSLSVSLGERATINCKSSQSLLNSGTRKNYLAWYQQKPGQPPRLLIYWTSTRESGVPDRFSGSGSGTDFTLTINTLQAEDVAVYYCKQSYTLYTFGQGTKLEIK
# B4: h77A-22 (antibody, V domains shown)
# VH: QIQLVQSGPEVKKPGESVKVSCKASGYTFTNYGMNWVRQAPGKGLEWMGWINTYTGEPTYADDFKGRVTITRDTSASTAYMELSSLRSEDTAVYFCARYDHAMDYWGQGTSVTVSS
# VL: B3 VL
# B5: h77A-25 (antibody, V domains shown)
# VH: B4 VH
# VL: B3 VL with S12A, P49S, R51K, N82S, T83S, Q105G
# B6: h77A-23 (antibody, V domains shown)
# VH: B4 VH
# VL: B3 VL with I2V, S12A, A19V, P49S, R51K, N82S, T83S
# B7: h77A-15 (antibody, V domains shown)
# VH: B3 VH
# VL: B3 VL with S12A, P49S, R51K, N82S, T83S, Q105G
# B8: h77A-4 (antibody, V domains shown)
# VH: B4 VH with P9A, E16A, K43Q, V68F, I70F, R72T, A76T, S84R, E89D, S111L
# VL: DIQMTQSPSSLSASVGDRVTITCKSSQSLLNSGTRKNYLAWYQQKPGKVPKLLIYWTSTRESGVPSRFSGSGSGTDFTLTISSLQPEDVATYYCKQSYTLYTFGGGTKLEIK
# B9: h77A-7 (antibody, V domains shown)
# VH: B4 VH with P9A, E16S, K43Q, V68F, I70F, R72A, T74E, A76T, S111L
# VL: B3 VL
# B10: h77A-13 (antibody, V domains shown)
# VH: B3 VH
# VL: B3 VL with I2V, S12A, A19V, P49S, R51K, N82S, T83S
# B11: h77A-16 (antibody, V domains shown)
# VH: EVQLVESGGGLVKPGGSLRLSCKASGYTFTNYGMNWVRQAPGKGLKWVGWINTYTGEPTYADDFKGRFTFSRDDSKNTLYLQMNSLKTEDTAVYFCARYDHAMDYWGQGTSVTVSS
# VL: B3 VL with D1E, M4L, S12A, P46A, P49S, R51K, N82D, T83S, Q105G, L109V
# B12: h77A-2 (antibody, V domains shown)
# VH: B4 VH with P9A, E16A, K43Q, V68F, I70F, R72T, A76T, S84R, E89D, S111L
# VL: B3 VL
# B13: h77A-14 (antibody, V domains shown)
# VH: B3 VH
# VL: B8 VL
# B14: h77A-6 (antibody, V domains shown)
# VH: B4 VH with P9A, E16S, K43Q, V68F, I70F, R72A, T74E, A76T, S111L
# VL: B3 VL with D1E, M4L, S12A, P46A, P49S, R51K, N82D, T83S, Q105G, L109V
# B15: h77A-11 (antibody, V domains shown)
# VH: B3 VH
# VL: B3 VL with D1E, M4L, S12A, P46A, P49S, R51K, N82D, T83S, Q105G, L109V
# B16: h77A-5 (antibody, V domains shown)
# VH: B4 VH with P9A, E16A, K43Q, V68F, I70F, R72T, A76T, S84R, E89D, S111L
# VL: B3 VL with S12A, P49S, R51K, N82S, T83S, Q105G
# B17: h77A-3 (antibody, V domains shown)
# VH: B4 VH with P9A, E16A, K43Q, V68F, I70F, R72T, A76T, S84R, E89D, S111L
# VL: B3 VL with I2V, S12A, A19V, P49S, R51K, N82S, T83S
# B18: h77A-10 (antibody, V domains shown)
# VH: B4 VH with P9A, E16S, K43Q, V68F, I70F, R72A, T74E, A76T, S111L
# VL: B3 VL with S12A, P49S, R51K, N82S, T83S, Q105G
# B19: h77A-9 (antibody, V domains shown)
# VH: B4 VH with P9A, E16S, K43Q, V68F, I70F, R72A, T74E, A76T, S111L
# VL: B8 VL
# B20: h77A-24 (antibody, V domains shown)
# VH: B4 VH
# VL: B8 VL
# B21: h77A-21 (antibody, V domains shown)
# VH: B4 VH
# VL: B3 VL with D1E, M4L, S12A, P46A, P49S, R51K, N82D, T83S, Q105G, L109V
# B22: h77A-1.79 (antibody, V domains shown)
# VH: QIQLVQSGAEVKKPGASVKVSCKASGYTFTKYGMNWVRQAPGQGLEWMGWINTYTGEPRYADDFKGRFTFTTDTSTSTAYMELRSLRSDDTAVYFCARYDHRMDYWGQGTLVTVSS
# VL: B3 VL with D1E, M4L, S12A, P49S, R51K, N82D, T83S, T99N, Q105G, L109V
# notes: captured by anti-human Fc
# B23: h77A-1.91 (antibody, V domains shown)
# VH: B22 VH with Q3H, T28I, K31N, R59T, A79V, A97V, R102A
# VL: B3 VL with D1E, M4L, L30F, P46A, P49S, R51K, N82D, T83S, Q105G, L109V
# notes: captured by anti-human Fc
# B24: h77A-1.97 (antibody, V domains shown)
# VH: B22 VH with K31N, R59T, F70M, R102A
# VL: B3 VL with S12A, P49S, R51K, N82S, T83S
# notes: captured by anti-human Fc
# B25: h77A-1.81 (antibody, V domains shown)
# VH: B22 VH with Q3H, T28I, K31N, R59T, A79V, A97V, R102A
# VL: EIVLTQSPDSLAVSLGERATINCKSSQSLFNSGTRKNYLAWYQQKAGQSPKLLIYWTSTRESGVPDRFSGSGSGTDFTLTIDSLQAEDVAVYYCKQSYTLYTFGGGTKVEIK
# notes: captured by anti-human Fc
# B26: h77A-1.96 (antibody, V domains shown)
# VH: B22 VH with K31N, R59T, R102A
# VL: B3 VL with S12A, P49S, R51K, N82S, T83S
# notes: captured by anti-human Fc
# B27: h77A-1.85 (antibody, V domains shown)
# VH: B22 VH with Q3H, T28I, K31N, R59T, A97V, R102A
# VL: B25 VL with F30L, A40S, Q44K, A46S
# notes: captured by anti-human Fc
# B28: h77A-1.98 (antibody, V domains shown)
# VH: B22 VH with K31N, R59T, F70M, R102A
# VL: B25 VL with F30L
# notes: captured by anti-human Fc
# B29: h77A-1.80 (antibody, V domains shown)
# VH: B22 VH with K31N, R59K, R102V
# VL: B25 VL with F30L, A40S, A46P, L53I
# notes: captured by anti-human Fc
# B30: h77A-1.92 (antibody, V domains shown)
# VH: B22 VH with T28S, K31N, R59T, A61G, R102A
# VL: B25 VL with A12T, Q44K, T99N
# notes: captured by anti-human Fc
# B31: h77A-1.86 (antibody, V domains shown)
# VH: B22 VH with A9V, K31N, P58T, R59T, R102A
# VL: B25 VL with Q44K, T80S, S83R
# notes: captured by anti-human Fc
# Target: T1, HSP70 (human HSP70; the antigen of the binning, humanization and variant binding assays) (human, UniProt P0DMV8 1-641, limits assumed)
# T1 construct: also called hu HSP70
# Assay: BLI, antibody on sensor
# Protocol: Humanized variants were characterized for binding using biolayer interferometry (BLI). Chimeric antibodies including the murine 77A antigen binding region and human Fe regions were also tested. Antibodies and reagents were diluted out onto microwell plates and loaded into the instrument. Diluted antibodies were first immobilized onto dip-and-read sensors, and then measurements for baselines were acquired. Subsequently, the sensors were dipped into wells containing the antigen in solution, or buffer alone. The change in number of molecules bound to the sensor was quantified by measurement of the shift in the interference pattern of light during each step of the protocol. Mathematical modeling was performed based on those values and the concentrations of reagents used in the assay and used to calculate kinetics values.
# T1 sequence (P0DMV8 whole entry, change not shown): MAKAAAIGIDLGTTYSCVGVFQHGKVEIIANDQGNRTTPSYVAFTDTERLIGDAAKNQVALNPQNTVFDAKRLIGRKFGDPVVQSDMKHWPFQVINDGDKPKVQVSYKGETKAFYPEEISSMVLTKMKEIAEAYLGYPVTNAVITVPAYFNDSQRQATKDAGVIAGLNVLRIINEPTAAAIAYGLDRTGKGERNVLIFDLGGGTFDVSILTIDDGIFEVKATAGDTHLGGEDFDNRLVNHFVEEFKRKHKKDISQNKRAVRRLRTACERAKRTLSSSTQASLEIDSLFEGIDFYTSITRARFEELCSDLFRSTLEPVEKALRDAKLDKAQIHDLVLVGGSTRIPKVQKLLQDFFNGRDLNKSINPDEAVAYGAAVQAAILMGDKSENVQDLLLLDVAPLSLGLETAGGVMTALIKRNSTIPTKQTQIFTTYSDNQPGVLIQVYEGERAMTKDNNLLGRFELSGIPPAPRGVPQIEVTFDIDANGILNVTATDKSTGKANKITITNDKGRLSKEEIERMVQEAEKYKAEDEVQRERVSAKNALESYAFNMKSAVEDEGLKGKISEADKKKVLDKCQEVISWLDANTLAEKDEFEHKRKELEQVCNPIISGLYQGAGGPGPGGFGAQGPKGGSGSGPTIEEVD
Kd,koff,kon,Binder
1.39 nM,9.94e-05 s⁻¹,71600 M⁻¹ s⁻¹,B1
1.81 nM,0.000129 s⁻¹,71300 M⁻¹ s⁻¹,B2
10 nM,0.000446 s⁻¹,44500 M⁻¹ s⁻¹,B3
8.31 nM,0.000302 s⁻¹,36400 M⁻¹ s⁻¹,B4
10.6 nM,0.000503 s⁻¹,47300 M⁻¹ s⁻¹,B5
8.96 nM,0.000447 s⁻¹,49900 M⁻¹ s⁻¹,B6
10.8 nM,0.000513 s⁻¹,47600 M⁻¹ s⁻¹,B7
7.66 nM,0.000287 s⁻¹,37400 M⁻¹ s⁻¹,B8
10 nM,0.000488 s⁻¹,48700 M⁻¹ s⁻¹,B9
8.85 nM,0.000396 s⁻¹,44700 M⁻¹ s⁻¹,B10
10.5 nM,0.00046 s⁻¹,44000 M⁻¹ s⁻¹,B11
5.13 nM,0.000308 s⁻¹,59900 M⁻¹ s⁻¹,B12
15 nM,0.000616 s⁻¹,41100 M⁻¹ s⁻¹,B13
2.64 nM,0.00014 s⁻¹,53100 M⁻¹ s⁻¹,B14
4.23 nM,0.000189 s⁻¹,44600 M⁻¹ s⁻¹,B15
6.87 nM,0.000353 s⁻¹,51400 M⁻¹ s⁻¹,B16
4.9 nM,0.000305 s⁻¹,62300 M⁻¹ s⁻¹,B17
7.1 nM,0.000409 s⁻¹,57700 M⁻¹ s⁻¹,B18
8.89 nM,0.000348 s⁻¹,39200 M⁻¹ s⁻¹,B19
9.26 nM,0.000294 s⁻¹,31800 M⁻¹ s⁻¹,B20
13.1 nM,0.000545 s⁻¹,41700 M⁻¹ s⁻¹,B21

# Target: T1, HSP70 (human HSP70; the antigen of the …)
# Assay: BLI, anti-human Fc capture, antigen 100 nM
# Protocol: Binding assays were performed as follows. Antibody variants were immobilized using anti-human Fc onto the surface of a series of biosensors at […]. Antigen, at 100 nM, was passed over the surface to generate a binding response. Binding data for the antibody:antigen interactions were collected at 25° C. on the biosensors. In Table 14, X=610 represents captured antigen value (nM) at the beginning of the dissociation phase (measured at 610 seconds after the biosensor was initially contacted with antigen) and X=1495 represents captured antigen value (nM) at the end of the dissociation phase (measured at 1495 seconds after the biosensor was initially contacted with antigen). In Table 14, antibodies with an X=610 value greater than 0.2 and a % dissociation less than 10% are shown in bold.
row,% Diss,Binder
1,-37.4%,B22
2,30.7%,B23
3,27.2%,B24
4,30.1%,B25
5,18.8%,B26
6,16.1%,B27
7,34.5%,B28
8,-8.84%,B29
9,32.4%,B30
10,14.1%,B31
